Test results as given in US20100092481A1 (INSTITUTE FOR RESEARCH IN BIOMEDICINE, published 2010).

B1: 2C12 (antibody, V domains shown)
VH: QITLRESGPTLVKPTQTLTLTCTFSGFSLNTNGVGVGWIRQPPGKALEWLALIYWNGNEGYSPSLKSRLTITKDTSKNQVVLTMTNMDPVDTATYYCVHWPQGLTTVTRLAFDIWGQGTMVTVSS
VL: QSALTQPRSVSGSPGQSVTISCTGTTSDVGRYNFVSWYQQHPGKAPKLLMYDVSQRPSGVPSRFSGSKSGNTASLTISGLQAEDEAVFYCCSYAGGNFFSYVFGTGTKVTVL
notes: human IgG mAb; also called 2C12-biotin
B2: 9I6 (antibody, V domains shown)
VH: EVQLVQSGAEVKKPGESLKISCRESGDTFPAYWIAWVRQMPGKGLEWMGIIYPIDSETTYSPSFQGQVTISADKSINTAYLQWSSLKASDSAIYYCARGTSTGLREAFHIWGQGTMVTVSS
VL: DVVMTQSPLSLAVTLGQPAYISCRSSQSLGYSDGNTYLNWFQQRPGQSPRRLIYEVSNRDSGVPDRFSGSGSGTDFTLKISRVEAEDVGTYYCMQGTHWPPMCSFGQGTKLEIK
notes: human IgG mAb; also called 9I6-biotin; 916
B3: 8J16 (antibody, V domains shown)
VH: QVQLQESGPGLVKPSETLSLTCSVSGGFTSSYYWSWIRQAPGKGLEWIGYVYYGESTDYNPSLKSRATISIDTSKNQFSLKLSSVTAADTAVYYCAREVDKRGFDYWGQGALVTVSS
VL: EIVLTQSPGTLSLSPGERATLSCRASQSVSGGYLAWYQQEPGQAPRLVIYGASSRATGIPDRFSASGSGTDFTLTITRLEPEDFAVYYCQQYGRTPLTFGGGTKVEIK
notes: human IgG mAb; also called 8J16-biotin

What was measured:
[1] = molecular target: T1, hCMV UL128, UL130 and UL131A co-expressed in HEK293T cells (human cytomegalovirus, UniProt P16837 1-171; P16772 1-214); assay: cell-based or functional assay
T1 sequence (P16837 whole entry, chain 1 of 2): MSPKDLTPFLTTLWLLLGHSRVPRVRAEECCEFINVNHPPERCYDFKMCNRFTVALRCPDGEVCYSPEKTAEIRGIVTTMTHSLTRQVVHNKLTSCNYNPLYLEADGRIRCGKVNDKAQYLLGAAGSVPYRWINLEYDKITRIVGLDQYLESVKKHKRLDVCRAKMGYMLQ
T1 sequence (P16772 whole entry, chain 2 of 2): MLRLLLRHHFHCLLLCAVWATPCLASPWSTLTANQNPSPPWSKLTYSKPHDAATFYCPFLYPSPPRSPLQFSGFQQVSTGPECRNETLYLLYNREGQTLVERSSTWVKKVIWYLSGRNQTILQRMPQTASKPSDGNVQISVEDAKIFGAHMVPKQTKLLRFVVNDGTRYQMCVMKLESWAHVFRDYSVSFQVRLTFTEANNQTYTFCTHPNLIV

[2] = molecular target: T1, hCMV UL128, UL130 and UL131A …; assay: cell-based or functional assay; remark: listed apart in the source
[3] = molecular target: T2, hCMV gH, gL, UL128, UL130 and UL131A co-expressed in HEK293T cells (human cytomegalovirus, UniProt P12824 24-743; P16832 31-278; P16837 1-171; P16772 1-214); assay: cell cross-competition, 20x excess; competitor 8I21-biotin
T2 construct: whole, on cells; also called gH + gL + UL128 + UL130 + UL131A; gH/gL/UL128-130 complex

[4] = molecular target: T2, hCMV gH, gL, UL128, UL130 and UL131A …; assay: cell cross-competition, 20x excess; competitor 4N10-biotin
[5] = molecular target: T2, hCMV gH, gL, UL128, UL130 and UL131A …; assay: cell cross-competition, 20x excess; competitor 15D8-biotin
[6] = molecular target: T2, hCMV gH, gL, UL128, UL130 and UL131A …; assay: cell cross-competition, 20x excess; competitor 8C15-biotin
[7] = molecular target: T2, hCMV gH, gL, UL128, UL130 and UL131A …; assay: cell cross-competition, 20x excess; competitor 9I6-biotin
[8] = molecular target: T2, hCMV gH, gL, UL128, UL130 and UL131A …; assay: cell cross-competition, 20x excess; competitor 8J16-biotin
[9] = molecular target: T2, hCMV gH, gL, UL128, UL130 and UL131A …; assay: cell cross-competition, 20x excess; competitor 6G4-biotin
[10] = molecular target: T2, hCMV gH, gL, UL128, UL130 and UL131A …; assay: cell cross-competition, 20x excess; competitor 4I22-biotin
[11] = molecular target: T2, hCMV gH, gL, UL128, UL130 and UL131A …; assay: cell cross-competition, 20x excess; competitor 10F7-biotin
[12] = molecular target: T2, hCMV gH, gL, UL128, UL130 and UL131A …; assay: cell cross-competition, 20x excess; competitor 2F4-biotin
[13] = molecular target: T2, hCMV gH, gL, UL128, UL130 and UL131A …; assay: cell cross-competition, 20x excess; competitor 5A2-biotin
[14] = molecular target: T2, hCMV gH, gL, UL128, UL130 and UL131A …; assay: cell cross-competition, 20x excess; competitor 2C12-biotin
[15] = molecular target: T2, hCMV gH, gL, UL128, UL130 and UL131A …; assay: cell cross-competition, 20x excess; competitor 1F11-biotin

Binder | 50% Neutralization ARPE (hCMV VR1814) [1] [µg/mL] | 50% Neutralization MRC-9 (hCMV VR1814) [1] [µg/mL] | 90% Neutralization ARPE (hCMV VR1814) [2] [µg/mL] | 90% Neutralization MRC-9 (hCMV VR1814) [2] [µg/mL] | Inhibition of binding (%) [3] [%] | Inhibition of binding (%) [4] [%] | Inhibition of binding (%) [5] [%] | Inhibition of binding (%) [6] [%] | Inhibition of binding (%) [7] [%] | Inhibition of binding (%) [8] [%] | Inhibition of binding (%) [9] [%] | Inhibition of binding (%) [10] [%] | Inhibition of binding (%) [11] [%] | Inhibition of binding (%) [12] [%] | Inhibition of binding (%) [13] [%] | Inhibition of binding (%) [14] [%] | Inhibition of binding (%) [15] [%]
B1 | < 0.01 | ≤ 2 | 0.006 | > 10 | 0 | 0 | 0 | 100 | 100 | 100 | 100 | 0 | 0 | 0 | 0 | 100 | 0
B2 | < 0.001 | > 2 | 0.0007 | > 10 | 0 |  |  | 100 | 100 | 100 | 100 | 0 |  | 0 |  | 100 | 0
B3 | < 0.001 | > 2 | 0.0008 | > 10 | 0 |  |  | 100 | 70 | 100 | 100 | 0 |  | 0 |  | 100 | 0
